# B1: BBSome complex member BBS5 (Homo sapiens), Q8N3I7 (parent)
# chain: MSVLDALWEDRDVRFDLSAQQMKTRPGEVLIDCLDSIEDTKGNNGDRGRLLVTNLRILWHSLALSRVNVSVGYNCILNITTRTANSKLRGQTEALYILTKCNSTRFEFIFTNLVPGSPRLFTSVMAVHRAYETSKMYRDFKLRSALIQNKQLRLLPQEHVYDKINGVWNLSSDQGNLGTFFITNVRIVWHANMNDSFNVSIPYLQIRSIKIRDSKFGLALVIESSQQSGGYVLGFKIDPVEKLQESVKEINSLHKVYSASPIFGVDYEMEEKPQPLEALTVEQIQDDVEIDSDGHTDAFVAYFADGNKQQDREPVFSEELGLAIEKLKDGFTLQGLWEVMS
# partner: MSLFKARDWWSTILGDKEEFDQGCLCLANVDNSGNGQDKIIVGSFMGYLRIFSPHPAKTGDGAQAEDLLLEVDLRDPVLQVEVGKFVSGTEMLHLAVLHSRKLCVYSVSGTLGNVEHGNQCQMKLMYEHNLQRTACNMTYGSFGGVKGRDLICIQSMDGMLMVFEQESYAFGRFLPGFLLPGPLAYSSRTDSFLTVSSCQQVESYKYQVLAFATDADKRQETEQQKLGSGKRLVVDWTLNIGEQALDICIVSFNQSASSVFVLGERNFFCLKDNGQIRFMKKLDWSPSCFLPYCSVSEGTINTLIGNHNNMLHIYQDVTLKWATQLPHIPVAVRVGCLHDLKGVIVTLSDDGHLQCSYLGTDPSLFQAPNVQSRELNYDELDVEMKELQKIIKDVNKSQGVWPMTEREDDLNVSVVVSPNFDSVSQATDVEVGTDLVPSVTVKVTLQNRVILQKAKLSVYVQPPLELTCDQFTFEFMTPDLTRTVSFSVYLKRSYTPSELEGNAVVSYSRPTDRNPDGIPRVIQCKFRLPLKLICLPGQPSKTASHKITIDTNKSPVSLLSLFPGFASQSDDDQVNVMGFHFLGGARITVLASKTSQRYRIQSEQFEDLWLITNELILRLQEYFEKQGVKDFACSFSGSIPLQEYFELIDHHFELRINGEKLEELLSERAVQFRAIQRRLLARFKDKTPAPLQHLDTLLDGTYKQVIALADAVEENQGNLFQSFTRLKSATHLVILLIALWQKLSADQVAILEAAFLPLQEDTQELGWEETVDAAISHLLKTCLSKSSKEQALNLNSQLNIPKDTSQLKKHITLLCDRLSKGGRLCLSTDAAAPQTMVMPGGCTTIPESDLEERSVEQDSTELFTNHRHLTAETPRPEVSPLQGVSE
# Variants of: B1
# Conditions: with pthb1_human BBS9, Q3SYG4
row,Variant,effect of a mutation on the interaction
1,MSVLDALWEDRDVRFDLSAQQMKTRPGEVLIDCLDSIEDTKGNNGDRGKLLVTNLRILWHSLALSRVNVSVGYNCILNITTRTANSKLRGQTEALYILTKCNSTRFEFIFTNLVPGSPRLFTSVMAVHRAYETSKMYRDFKLRSALIQNKQLRLLPQEHVYDKINGVWNLSSDQGNLGTFFITNVRIVWHANMNDSFNVSIPYLQIRSIKIRDSKFGLALVIESSQQSGGYVLGFKIDPVEKLQESVKEINSLHKVYSASPIFGVDYEMEEKPQPLEALTVEQIQDDVEIDSDGHTDAFVAYFADGNKQQDREPVFSEELGLAIEKLKDGFTLQGLWEVMS [R49K],with no effect
2,MSVLDALWEDRDVRFDLSAQQMKTRPGEVLIDCLDSIEDTKGNNGDRGELLVTNLRILWHSLALSRVNVSVGYNCILNITTRTANSKLRGQTEALYILTKCNSTRFEFIFTNLVPGSPRLFTSVMAVHRAYETSKMYRDFKLRSALIQNKQLRLLPQEHVYDKINGVWNLSSDQGNLGTFFITNVRIVWHANMNDSFNVSIPYLQIRSIKIRDSKFGLALVIESSQQSGGYVLGFKIDPVEKLQESVKEINSLHKVYSASPIFGVDYEMEEKPQPLEALTVEQIQDDVEIDSDGHTDAFVAYFADGNKQQDREPVFSEELGLAIEKLKDGFTLQGLWEVMS [R49E],with no effect
3,MSVLDALWEDRDVRFDLSAQQMKTRPGEVLIDCLDSIEDTKGNNGDRGALLVTNLRILWHSLALSRVNVSVGYNCILNITTRTANSKLRGQTEALYILTKCNSTRFEFIFTNLVPGSPRLFTSVMAVHRAYETSKMYRDFKLRSALIQNKQLRLLPQEHVYDKINGVWNLSSDQGNLGTFFITNVRIVWHANMNDSFNVSIPYLQIRSIKIRDSKFGLALVIESSQQSGGYVLGFKIDPVEKLQESVKEINSLHKVYSASPIFGVDYEMEEKPQPLEALTVEQIQDDVEIDSDGHTDAFVAYFADGNKQQDREPVFSEELGLAIEKLKDGFTLQGLWEVMS [R49A],with no effect
4,MSVLDALWEDRDVRFDLSAQQMKTRPGEVLIDCLDSIEDTKGNNGDRSRLLVTNLRILWHSLALSRVNVSVGYNCILNITTRTANSKLRGQTEALYILTKCNSTRFEFIFTNLVPGSPRLFTSVMAVHRAYETSKMYRDFKLRSALIQNKQLRLLPQEHVYDKINGVWNLSSDQGNLGTFFITNVRIVWHANMNDSFNVSIPYLQIRSIKIRDSKFGLALVIESSQQSGGYVLGFKIDPVEKLQESVKEINSLHKVYSASPIFGVDYEMEEKPQPLEALTVEQIQDDVEIDSDGHTDAFVAYFADGNKQQDREPVFSEELGLAIEKLKDGFTLQGLWEVMS [G48S],disrupting interaction strength
5,MSVLDALWEDRDVRFDLSAQQMKTRPGEVLIDCLDSIEDTKGNNGDRGRALVTNLRILWHSLALSRVNVSVGYNCILNITTRTANSKLRGQTEALYILTKCNSTRFEFIFTNLVPGSPRLFTSVMAVHRAYETSKMYRDFKLRSALIQNKQLRLLPQEHVYDKINGVWNLSSDQGNLGTFFITNVRIVWHANMNDSFNVSIPYLQIRSIKIRDSKFGLALVIESSQQSGGYVLGFKIDPVEKLQESVKEINSLHKVYSASPIFGVDYEMEEKPQPLEALTVEQIQDDVEIDSDGHTDAFVAYFADGNKQQDREPVFSEELGLAIEKLKDGFTLQGLWEVMS [L50A],disrupting interaction strength
6,MSVLDALWEDRDVRFDLSAQQMKTRPGEVLIDCLDSIEDTKGNNGDRGRKLVTNLRILWHSLALSRVNVSVGYNCILNITTRTANSKLRGQTEALYILTKCNSTRFEFIFTNLVPGSPRLFTSVMAVHRAYETSKMYRDFKLRSALIQNKQLRLLPQEHVYDKINGVWNLSSDQGNLGTFFITNVRIVWHANMNDSFNVSIPYLQIRSIKIRDSKFGLALVIESSQQSGGYVLGFKIDPVEKLQESVKEINSLHKVYSASPIFGVDYEMEEKPQPLEALTVEQIQDDVEIDSDGHTDAFVAYFADGNKQQDREPVFSEELGLAIEKLKDGFTLQGLWEVMS [L50K],with no effect
7,MSVLDALWEDRDVRFDLSAQQMKTRPGEVLIDCLDSIEDTKGNNGDRGRELVTNLRILWHSLALSRVNVSVGYNCILNITTRTANSKLRGQTEALYILTKCNSTRFEFIFTNLVPGSPRLFTSVMAVHRAYETSKMYRDFKLRSALIQNKQLRLLPQEHVYDKINGVWNLSSDQGNLGTFFITNVRIVWHANMNDSFNVSIPYLQIRSIKIRDSKFGLALVIESSQQSGGYVLGFKIDPVEKLQESVKEINSLHKVYSASPIFGVDYEMEEKPQPLEALTVEQIQDDVEIDSDGHTDAFVAYFADGNKQQDREPVFSEELGLAIEKLKDGFTLQGLWEVMS [L50E],with no effect
8,MSVLDALWEDRDVRFDLSAQQMKTRPGEVLIDCLDSIEDTKGNNGDRGRLEVTNLRILWHSLALSRVNVSVGYNCILNITTRTANSKLRGQTEALYILTKCNSTRFEFIFTNLVPGSPRLFTSVMAVHRAYETSKMYRDFKLRSALIQNKQLRLLPQEHVYDKINGVWNLSSDQGNLGTFFITNVRIVWHANMNDSFNVSIPYLQIRSIKIRDSKFGLALVIESSQQSGGYVLGFKIDPVEKLQESVKEINSLHKVYSASPIFGVDYEMEEKPQPLEALTVEQIQDDVEIDSDGHTDAFVAYFADGNKQQDREPVFSEELGLAIEKLKDGFTLQGLWEVMS [L51E],with no effect
9,MSVLDALWEDRDVRFDLSAQQMKTRPGEVLIDCLDSIEDTKGNNGDRGRLAVTNLRILWHSLALSRVNVSVGYNCILNITTRTANSKLRGQTEALYILTKCNSTRFEFIFTNLVPGSPRLFTSVMAVHRAYETSKMYRDFKLRSALIQNKQLRLLPQEHVYDKINGVWNLSSDQGNLGTFFITNVRIVWHANMNDSFNVSIPYLQIRSIKIRDSKFGLALVIESSQQSGGYVLGFKIDPVEKLQESVKEINSLHKVYSASPIFGVDYEMEEKPQPLEALTVEQIQDDVEIDSDGHTDAFVAYFADGNKQQDREPVFSEELGLAIEKLKDGFTLQGLWEVMS [L51A],with no effect

# — IntAct's records for PubMed 29039417
